In paper PMC11325224, “Organophosphorus S-adenosyl-L-methionine mimetics: synthesis, stability, and substrate properties” (Frontiers in Chemistry, 2024):
Counter-ions that a name gives are not always drawn.

Columns and labels:
WBSCR27 = target: T1, WBSCR27 (Mus musculus, UniProt Q8BGM4); assay: 1H, […] HSQC NMR titration; format: binding; settings: 15N-labelled apo protein 0.2 mM, ligand 1:1 to 1:5; cofactor site
T1 construct: gene Mettl27; recombinant, 15N-labelled; purification details only in supplement
T1 sequence (Q8BGM4 1-238): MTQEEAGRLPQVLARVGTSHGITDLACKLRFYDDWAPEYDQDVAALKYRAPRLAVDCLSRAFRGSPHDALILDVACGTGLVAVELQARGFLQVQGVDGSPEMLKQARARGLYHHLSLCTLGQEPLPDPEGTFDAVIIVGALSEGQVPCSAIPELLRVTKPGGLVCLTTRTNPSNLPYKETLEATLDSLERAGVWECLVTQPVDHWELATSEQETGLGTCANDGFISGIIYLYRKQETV

CI = tested on: T2, CI; assay: Michaelis-Menten kinetics of SAH-PH methylation; format: biochemical, Arabidopsis thaliana; settings: co-substrate rac-SAH-PH
T2 construct: engineered variant V140T, recombinant; expression details only in supplement

Row | Compound | 1H,15N HSQC NMR titration (WBSCR27) | Km (CI) [mM] | kcat (CI) [s⁻¹]
1 | C[S+](CCC(N)[PH](=O)O)C[C@H]1O[C@@H](n2cnc3c(N)ncnc32)[C@H](O)[C@@H]1O (mixture of isomers) [rac-SAM-PH, 5′-{S-[3-Amino-3-(hydrohydroxyphosphoryl)propy]-S-methylthionia}-5′-deoxyadenosine hydrochloride] | WBSCR27 strongly binds to SAM-P H | – | –
2 | AtHMT^V140T (Arabidopsis thaliana; V140T) | – | 5.3 ± 3 | 0.3 ± 0.033
